From the supplement of paper PMC10567573 come the findings set out here.

± gives the standard deviation.

The nature of this data set: protein stability index of a GFP-peptide fusion (GPS, HEK-293T) (PSI 1-6); higher = more stable. The note with it: c terminus: a fixed tail appended.
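Also: 24-mer peptide tiles fused after GFP, lentivirally expressed, FACS-sorted into six equal bins by GFP/DsRed ratio, decoded by Illumina sequencing, PSI is the read-weighted mean bin number.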

Turning to WRTWMTITQSWQVSVRVQPRGRAH [C22orf15], the protein stability index turned out to be 2.38 ± 0.64 (treatment: DMSO) and 3.05 ± 0.39 (treatment: MLN4924 1 uM, 8 h).

Consider WSQQIEESTTVVTTQSAEVGAAET [KRT18], for which the protein stability index by setting is: (treatment: DMSO) 5.5 ± 0.21; (treatment: MLN4924 1 uM, 8 h) 5.42 ± 0.14.

Turning to WVKQQAEREAEKEQKRLERLQRKL [SDE2], the protein stability index reads like this: (treatment: DMSO) 4.18 ± 0.36; (treatment: MLN4924 1 uM, 8 h) 4.1 ± 0.33.

WVLEPVLEGWRPDQLYRRKKDNHA [ELOA2] returned a protein stability index (treatment: DMSO) of 2.51 ± 0.31 and a protein stability index (treatment: MLN4924 1 uM, 8 h) of 3.34 ± 0.14.

Turning to WVSHTAAMTGTFPAYGMSPSLSTI [DVL3], the protein stability index came out at 2.62 ± 0.34 (treatment: DMSO) and 2.29 ± 0.26 (treatment: MLN4924 1 uM, 8 h).

In the case of YCFMIAYGTQRTLILESQNWRYAT [FUT8], the protein stability index (treatment: DMSO) worked out at 3.46 ± 0.51 and the protein stability index (treatment: MLN4924 1 uM, 8 h) turned out to be 3.28 ± 0.27.

YEEGMYADWWQEPDAKGDEAEAEP [P3H4]: the protein stability index by setting is: (treatment: DMSO) 5.49 ± 0.17; (treatment: MLN4924 1 uM, 8 h) 5.37 ± 0.22.

With YFMIQALNQKTSEKMKKRKMSNSF [RHOBTB3], the protein stability index is, setting by setting: (treatment: DMSO) 2.24 ± 0.08; (treatment: MLN4924 1 uM, 8 h) 2.37 ± 0.33.

For YGPVEVISHWHPNITINIVDDHTP [CLPTM1], the protein stability index (treatment: DMSO) stood at 2.41 ± 0.23 and the protein stability index (treatment: MLN4924 1 uM, 8 h) came out at 2.54 ± 0.17.

Regarding YGRSDVVVLCFSIANPNSLNHVKS [RHOBTB1], the protein stability index is, setting by setting: (treatment: DMSO) 3.21 ± 0.43; (treatment: MLN4924 1 uM, 8 h) 2.64 ± 0.69.

Turning to YHPRDQNKVLVCPMKSAPVMLTLS [RBBP5], the protein stability index worked out at 2.33 ± 0.66 (treatment: DMSO) and 2.34 ± 0.3 (treatment: MLN4924 1 uM, 8 h).

Turning to YLNLDTWEWNELIPQGICPVGRSW [KLHDC2], the protein stability index runs as follows: (treatment: DMSO) 2.79 ± 1.1; (treatment: MLN4924 1 uM, 8 h) 2.39 ± 0.42.

As for YLSCLEELMKCQIIYPRQQLLTLR [TRIP13], the protein stability index worked out at 2.68 ± 0.68 (treatment: DMSO) and 2.69 ± 0.36 (treatment: MLN4924 1 uM, 8 h).

YLTSQLPPLREIILGPSSAYTQTQ [NFE2L1]: the protein stability index stood at 2.38 ± 0.3 (treatment: DMSO) and 2.52 ± 0.1 (treatment: MLN4924 1 uM, 8 h).

For YMHVGSCQHLSSSAEELRKARSNS [KCNA3], the protein stability index by setting is: (treatment: DMSO) 3.95 ± 0.11; (treatment: MLN4924 1 uM, 8 h) 4.37 ± 0.22.

Turning to YMVIEEGGMNHSAFPQTPFKTGNS [KCNA3], the protein stability index was determined as 3.27 ± 0.17 (treatment: DMSO) and 3.22 ± 0.61 (treatment: MLN4924 1 uM, 8 h).

YNPSFEDHQTLLSAAHEVELQRQK [NOP53] came in with a protein stability index (treatment: DMSO) of 4.19 ± 0.56 and a protein stability index (treatment: MLN4924 1 uM, 8 h) of 4.35 ± 0.44.

On to YPTDNTKVMIFKSSYSLSDMVSNI [MIA2], for which the protein stability index is, setting by setting: (treatment: DMSO) 2.51 ± 0.62; (treatment: MLN4924 1 uM, 8 h) 2.436 ± 0.003.

With YQIYDVSGESNSAVSTEDLKECLK [LARP4], the protein stability index by setting is: (treatment: DMSO) 4.2 ± 0.18; (treatment: MLN4924 1 uM, 8 h) 4.2 ± 0.19.

Turning to YQLCRVQECPPDGRSFREEQCVSF [ADAMTSL2], the protein stability index amounted to 2.92 ± 0.65 (treatment: DMSO) and 2.97 ± 0.32 (treatment: MLN4924 1 uM, 8 h).

Consider YREHKSLTGTARYMSINTHLGKEQ [CSNK1G1], for which the protein stability index is, setting by setting: (treatment: DMSO) 3.47 ± 0.34; (treatment: MLN4924 1 uM, 8 h) 3.27 ± 0.49.
